Source: paper doi:10.1101/2020.09.30.318972 (bioRxiv, 2020)

How the values were obtained:
[1] = target: T1, SARS-CoV-2 spike protein receptor-binding domain (SARS-CoV-2, UniProt P0DTC2); test: SPR
[2] = target: T1, SARS-CoV-2 spike protein …; test: crystal structure

B1: LY-CoV555 (antibody, V domains shown)
VH: QVQLVQSGAEVKKPGSSVKVSCKASGGTFSNYAISWVRQAPGQGLEWMGRIIPILGIANYAQKFQGRVTITADKSTSTAYMELSSLRSEDTAVYYCARGYYEARHYYYYYAMDVWGQGTAVTVSS
VL: not shown
B1: binds [1].

B2: LY-CoV555 Fab (Fab, V domains shown)
VH: B1 VH
VL: not shown
B2: binds [2].
